In patent publication US20230192896A1 (published 2023):

Target: free FIXa (activated Factor IX) (UniProt P00740 47-191; P00740 227-461)
Test: BLI

Binder | Kd [nM]
BIIB-9-472 (antibody, V domains shown) VH: EVQLVESGGGLVKPGGSLRLSCAASGFTFSSYSMNWVRQAPGKGLEWVSSISSSSSYIYYADSVKGRFTISRDNAKNSLYLQMNSLRAEDTAVYYCARGGRYSGSWSWNIWGQGTMVTVSS VL: not shown | 8.99
BIIB-9-588 (antibody, V domains shown) VH: QVQLVQSGAEVKKPGASVKVSCKASGYTFTSYYMHWVRQAPGQGLEWMGIINPSGGSTTYAQKFQGRVTMTRDTSTSTVYMELSSLRSEDTAVYYCARDGGGSYDYWSGYWYDVWGQGTTVTVSS VL: EIVMTQSPATLSVSPGERATLSCRASQSVSSNLAWYQQKPGQAPRLLIYGASTRATGIPARFSGSGSGTEFTLTISSLQSEDFAVYYCQQAYNWPFTFGGGTKVEIK | 16.5
BIIB-9-451 (antibody, V domains shown) VH: QLQLQESGPGLVKPSETLSLTCTVSGGSISSSSYYWGWIRQPPGKGLEWIGSISYSGSTYYNPSLKSRVTISVDTSKNQFSLKLSSVTAADTAVYYCARDSGGYYYQGFDYWGQGTLVTVSS VL: not shown | 8.76
BIIB-9-473 (antibody, V domains shown) VH: not shown VL: EIVLTQSPATLSLSPGERATLSCRASQSVSSYLAWYQQKPGQAPRLLIYDASNRATGIPARFSGSGSGTDFTLTISSLEPEDFAVYYCQQRSFLPYTFGGGTKVEIK | 17.2
BIIB-9-619 (antibody, V domains shown) VH: QVQLVQSGAEVKKPGASVKVSCKASGYTFTSYYMHWVRQAPGQGLEWMGIINPSGGSTSYAQKFQGRVTMTRDTSTSTVYMELSSLRSEDTAVYYCARDGPRVSDYYMDVWGKGTTVTVSS VL: EIVLTQSPATLSLSPGERATLSCRASQSVSSYLAWYQQKPGQAPRLLIYDASNRATGIPARFSGSGSGTDFTLTISSLEPEDFAVYYCQQRDNWPFTFGGGTKVEIK | 11.9
BIIB-9-631 (antibody, V domains shown) VH: QVQLVQSGAEVKKPGASVKVSCKASGYTFTSYYMHWVRQAPGQGLEWMGIINPSGGSTSYAQKFQGRVTMTRDTSTSTVYMELSSLRSEDTAVYYCARAENRGDYEAWGQGTLVTVSS VL: DIQMTQSPSSVSASVGDRVTITCRASQGISRWLAWYQQKPGKAPKLLIYAASSLQSGVPSRFSGSGSGTDFTLTISSLQPEDFATYYCQQRTSFPLTFGGGTKVEIK | 61.2
BIIB-9-1268 (antibody, V domains shown) VH: QVQLVQSGAEVKKPGASVKVSCKASGYTFTSYYMHWVRQAPGQGLEWMGIINPSGGSTSYAQKFQGRVTMTRDTSTSTVYMELSSLRSEDTAVYYCARDPPSWYVFDIWGQGTMVTVSS VL: EIVMTQSPATLSLSPGERATLSCRASQSVSSYLAWYQQKPGQAPRLLIYDASNRATGIPARFSGSGSGTDFTLTISSLEPEDFAVYYCQQATVWPFTFGGGTKVEIK | 51.5
BIIB-9-886 (antibody, V domains shown) VH: QVQLVQSGAEVKKPGASVKVSCKASGYTFTSYYMHWVRQAPGQGLEWMGIINPSGGSTSYAQKFQGRVTMTRDTSTSTVYMELSSLRSEDTAVYYCARDPAHSYLDAFDIWGQGTMVTVSS VL: DIQMTQSPSSVSASVGDRVTITCRASQGISSWLAWYQQKPGKAPKLLIYAASSLQSGVPSRFSGSGSGTDFTLTISSLQPEDFATYYCQQASSFPFTFGGGTKVEIK | 30.8
BIIB-9-628 (antibody, V domains shown) VH: QVQLVQSGAEVKKPGASVKVSCKASGYTFTSYYMHWVRQAPGQGLEWMGIINPSGGSTSYAQKFQGRVTMTRDTSTSTVYMELSSLRSEDTAVYYCAREPIAYGATLDLWGRGTLVTVSS VL: EIVLTQSPGTLSLSPGERATLSCRASQSVSSDYLAWYQQKPGQAPRLLIYGASSRATGIPDRFSGSGSGTDFTLTISRLEPEDFAVYYCQQYVVFPFTFGGGTKVEIK | 108
BIIB-9-416 (antibody, V domains shown) VH: QVQLVQSGAEVKKPGASVKVSCKASGYTFTSYYMHWVRQAPGQGLEWMGIINPSGGSTSYAQKFQGRVTMTRDTSTSTVYMELSSLRSEDTAVYYCAREGPMLDYPTYSNWFDPWGQGTLVTVS VL: EIVMTQSPATLSLSPGERATLSCRASQSVSSYLAWYQQKPGQAPRLLIYDSSNRATGIPARFSGSGSGTDFTLTISSLEPEDFAVYYCQQRVVWPPTFGGGTKVEIK | 2.98
BIIB-9-612 (antibody, V domains shown) VH: QVQLVQSGAEVKKPGASVKVSCKASGYTFTSYYMHWVRQAPGQGLEWMGIINPSGGSTSYAQKFQGRVTMTRDTSTSTVYMELSSLRSEDTAVYYCARDAGYHWYGMDVWGQGTTVTVSS VL: EIVLTQSPATLSLSPGERATLSCRASQSVSRYLAWYQQKPGQAPRLLIYDASNRATGIPARFSGSGSGTDFTLTISSLEPEDFAVYYCQQSSLFPLTFGGGTKVEIK | 14
BIIB-9-1287 (antibody, V domains shown) VH: QLQLQESGPGLVKPSETLSLTCTVSGGSISSSDYYWGWIRQPPGKGLEWIGSIYYSGSTYYNPSLKSRVTISVDTSKNQFSLKLSSVTAADTAVYYCARSPRHKVRGPNWFDPWGQGTLVTVSS VL: EIVLTQSPGTLSLSPGERATLSCRASQSVSSSYLAWYQQKPGQAPRLLIYGASSRATGIPDRFSGSGSGTDFTLTISRLEPEDFAVYYCQQYHLHPTFGGGTKVEIK | 0.669
BIIB-9-565 (antibody, V domains shown) VH: QLQLQESGPGLVKPSETLSLTCTVSGGSISSSSYYWGWIRQPPGKGLEWIGSIYYSGSTYYNPSLKSRVTISVDTSKNQFSLKLSSVTAADTAVYYCARAGMYSSYANWFDPWGQGTLVTVSS VL: EIVLTQSPATLSLSPGERATLSCRASQSVSSYLAWYQQKPGQAPRLLIYDASNRATGIPARFSGSGSGTDFTLTISSLEPEDFAVYYCQQDSNLPFTFGGGTKVEIK | 15.8
BIIB-9-567 (antibody, V domains shown) VH: QVQLVQSGAEVKKPGASVKVSCKASGYTFTSYYMHWVRQAPGQGLEWMGIINPSGGSTSYAQKFQGRVTMTRDTSTSTVYMELSSLRSEDTAVYYCARLGRRYYAYDGMDVWGQGTTVTVSS VL: not shown | 20.6
BIIB-9-1266 (antibody, V domains shown) VH: QVQLVQSGAEVKKPGASVKVSCKASGYTFTSYYMHWVRQAPGQGLEWMGIINPSGGSTSYAQKFQGRVTMTRDTSTSTVYMELSSLRSEDTAVYYCARDHGWAIYGMDVWGQGTTVTVSS VL: EIVMTQSPATLSLSPGERATLSCRASQSVSSYLAWYQQKPGQAPRLLIYDSSNRATGIPARFSGSGSGTDFTLTISSLEPEDFAVYYCQQRLNFPFTFGGGTKVEIK | 42.6
BIIB-9-1265 (antibody, V domains shown) VH: QLQLQESGPGLVKPSETLSLTCTVSGGSISSSSYYWGWIRQPPGKGLEWIGSIYYSGSTYYNPSLKSRVTISVDTSKNQFSLKLSSVTAADTAVYYCARDGRHYYELFDYWGQGTLVTVSS VL: DIQMTQSPSSVSASVGDRVTITCRASQGISSWLAWYQQKPGKAPKLLIYAASSLQSGVPSRFSGSGSGTDFTLTISSLQPEDFATYYCQQGNSFPITFGGGTKVEIK | 59.8
BIIB-9-1286 (antibody, V domains shown) VH: QVQLVQSGAEVKKPGASVKVSCKASGYTFTSYYMVWVRQAPGQGLEWMGIINPSGGSTSYAQKFQGRVTMTRDTSTSTVYMELSSLRSEDTAVYYCARVPTYRYSYLAFDIWGQGTMVTVSS VL: DIQMTQSPSSVSASVGDRVTITCRASQGISSWLAWYQQKPGKAPKLLIYAASSLQSGVPSRFSGSGSGTDFTLTISSLQPEDFVTYYCQQASSFPPTFGGGTKVEIK | 31.8
BIIB-9-1277 (antibody, V domains shown) VH: QVQLVQSGAEVKKPGASVKVSCKASGYTFTSYYMHWVRQAPGQGLEWMGIINPSGGSTSYAQKFQGRVTMTRDTSTSTVYMELSSLRSEDTAVYYCARGGTGYYYGSGSRDGYHYYYGMDVWGQGTTVTVSS VL: EIVMTQSPATLSVSPGERATLSCRASQSVSSYLAWYQQKPGQAPRLLIYDASNRATGIPARFSGSGSGTDFTLTISSLEPEDLAVYYCQQSANWPPTFGGGTKVEIK | 58.8
BIIB-9-626 (antibody, V domains shown) VH: QVQLVQSGAEVKKPGASVKVSCKASGYTFTSYYMHWVRQAPGQGLEWMGVINPSGGSTSYAQKFQGRVTMTRDTSTSTVYMELSSLRSEDTAVYYCARDLQYSMTYFDYWGQGTLVTVSS VL: DIQMTQSPSTLSASVGDRVTITCRASQSISSWLAWYQQKPGKAPKLLIYKASSLESGVPSRFSGSGSGTEFTLTISSLQPDDFATYYCQQDGSYPPLTFGGGTKVEIK | 166
BIIB-9-408 (antibody, V domains shown) VH: QVQLVQSGAEVKKPGASVKVSCKASGYTFTSYYMHWVRQAPGQGLEWMGIINPSGGSTTYAQKFQGRVTMTRDTSTSTVYMELSSLRSEDTAVYYCARDPGAYDDWSGYDDYGMDVWGQGTTVTVSS VL: EIVLTQSPATLSLSPGERATLSCRASQSVSSYLAWYQQKPGQAPRLLIYDASNRATGIPARFSGSGSGTDFTLTISSLEPEDFAVYYCQQAFVWPPITFGGGTKVEIK | 1.36
BIIB-9-452 (antibody, V domains shown) VH: QVQLVQSGAEVKKPGASVKVSCKASGYTFTSYYMHWVRQAPGQGLEWMGIINPSGGSTSYAQKFQGRVTMTRDTSTSTVYMELSSLRSEDTAVYYCARDGRLSYTWDRWGQGTLVTVSS VL: EIVMTQSPATLSVSPGERATLSCRASQSVSSNLAWYQQKPGQAPRLLIYGASTRATGIPARFSGSGSGTEFTLTISSLQSEDFAVYYCQQANNFPFTFGGGTKVEIK | 11.7
BIIB-9-889 (antibody, V domains shown) VH: QLQLQESGPGLVKPSETLSLTCTVSGGSISSSSYYWGWIRQPPGKGLEWIGSIYYSGSTYYNPSLKSRVTISVDTSKNQFSLKLSSVTAADTAVYYCARDVGWYTEYFDLWGRGTLVTVSS VL: EIVMTQSPATLSVSPGERATLSCRASQSVSSNLAWYQQKPGQAPRLLIYGASTRATGIPARFSGSGSGTEFTLTISSLQSEDFAVYYCQQAFNWPPTFGGGTKVEIK | 40.7
BIIB-9-566 (antibody, V domains shown) VH: QVQLVQSGAEVKKPGASVKVSCKASGYTFTSYYMVWVRQAPGQGLEWMGIINPSGGSTSYAQKFQGRVTMTRDTSTSTVYMELSSLRSEDTAVYYCARVPTYRYSYLAFDIWGQGTMVTVSS VL: EIVMTQSPATLSVSPGERATLSCRASQSVSSSLAWYQQKPGQAPRLLIYGASTRATGIPARFSGSGSGTEFTLTISSLQSEDFAVYYCQQHDNWPPTFGGGTKVEIK | 21.4
